Experimental findings from PMC5862502, “Coordinated regulation of Arabidopsis microRNA biogenesis and red light signaling through Dicer-like 1 and phytochrome-interacting factor 4” are described below.

The target in the series is T1, PIF4-MBP (phytochrome-interacting factor 4) (Arabidopsis thaliana, UniProt Q8W2F3 1-430).
T1 sequence: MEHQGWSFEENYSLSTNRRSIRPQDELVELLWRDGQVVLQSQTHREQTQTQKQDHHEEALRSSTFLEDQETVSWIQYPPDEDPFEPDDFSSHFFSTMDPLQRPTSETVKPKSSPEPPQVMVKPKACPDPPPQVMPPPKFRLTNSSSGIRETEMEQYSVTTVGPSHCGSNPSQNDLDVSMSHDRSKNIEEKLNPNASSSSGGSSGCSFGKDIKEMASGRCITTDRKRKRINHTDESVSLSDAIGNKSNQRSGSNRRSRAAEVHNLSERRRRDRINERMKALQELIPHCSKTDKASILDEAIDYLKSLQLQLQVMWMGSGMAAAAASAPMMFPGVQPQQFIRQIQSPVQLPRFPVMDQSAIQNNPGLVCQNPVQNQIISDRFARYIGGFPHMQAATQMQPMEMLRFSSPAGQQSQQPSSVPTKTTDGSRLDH
Briefly: EMSA; 1 nM labeled probe; decreasing amounts of PIF4; unlabeled same-sequence competitor in lane 8; LightShift Chemiluminescent EMSA kit buffer (composition not given), 20 ul, 30 min on ice, 1x TBE polyacrylamide gel. Conditions: protein: recombinant; tags: MBP; chain copies: 2; label: 3' biotin on sense strand; blunt. (A gel shift assay detects complexes by their altered migration in electrophoresis.)

B1: miR160b promoter G-box fragment (dsDNA)
DNA 1: AGACACGTGTAGAAATCTTCTAAACCC
DNA 2: GGGTTTAGAAGATTTCTACACGTGTCT
Take B1: the binding result is reported as “binds”.
